In publication PMC4010534:

Biological target: Cdc42 biosensor with the effector-binding mutations T35S and Y40C in Cdc42 (UniProt Q13153)

**Q.** Which difference in FRET/mCer ratio of the biosensor by fluorometry in HEK293 cells, GDI-bound (with excess GDI) against GDI-free does the source give for “guanine nucleotide dissociation inhibitor (from UniProt P52565 1-204) (natural protein)” here?
**A.** The difference in FRET/mCer ratio of the biosensor by fluorometry in HEK293 cells, GDI-bound (with excess GDI) against GDI-free was 17%.
